This note sets out measurements from the supplement of paper PMC9170038.

In the series the test system is MS2 coat protein. Nature of the series: apparent KD of MS2 coat protein; designed switch direction (-1 OFF switch, 1 ON switch): -1; higher = weaker reporter binding. The method in brief: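 Normalised cluster fluorescence was curve-fitted, and each design's median over clusters is its apparent KD. Before this, SNAP-549-labelled MS2 coat protein was titrated from 0.7 or 1.5 nM, doubling to 3 µM, over RNA switches transcribed on Illumina chips by stalled E. coli RNA polymerase. Titrations had no input, 200 uM small-molecule ligand, or an oligonucleotide input, and steps lasted 0.8–1.5 h (lowest) to 10–20 min (highest).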

[1] abbreviates: Eterna round: R95, input ligand: microRNA oligo, concentration not stated.
[2] abbreviates: input ligand: microRNA oligo, concentration not stated.
The mark [3] stands for this setting: Eterna round: R95, input ligand: FMN 200 uM.
The mark [4] stands for this setting: Eterna round: R95, input ligand: none.

On to “GUGUAGAUAGGAUAUACGAGAGUCUAGCGAAGCUAGAUUCUACAUGAGGAUCACCCAUGUAGAAGGGUCUACAC [Fiskers Ex 2 - 30] (puzzle: Exclusion 2)”, for which the “apparent KD of MS2 coat protein” value under setting [1] was 0.0142 µM.
As for “UGCCGUAGAGGAUAUACGUAGAAAUAGAUUCAUGUAAAACUACAUGAGGAUCACCCAUGUAGAAGGCUAUGGCU [JL-ex2-4.32 Eli mod] (Eterna round: R97, puzzle: Exclusion 2)”, the “apparent KD of MS2 coat protein” value reads like this: (input ligand: FMN 200 uM) 0.243 µM; (input ligand: none) 0.0253 µM.
The corresponding values for “CCGUAGUCAGGAUAUACAUGAGGAUCACCCAUGUAAAAUUUUAAUUUAAUUUGAAGGUGUAGAAGGGACCAGCC [Ex3 #28] (Eterna round: R97, puzzle: Exclusion 3)” are 0.0335 µM and 0.0356 µM.
In the case of “UAAGAAUACCGAGGAUAUGGUAGUACAUAUUUACCAGAAGGCGGACUCAACAUGAGGAUCACCCAUGUAUAAAGGGUAUUAGGU [JR_ExcNG1_Sub043] (Eterna round: R96, puzzle: Exclusion NG 1)”, the “apparent KD of MS2 coat protein” value runs as follows: (input ligand: FMN 200 uM) 0.0941 µM; under setting [2], 0.0583 µM; (input ligand: none) 0.0643 µM.
On to “UUUAGUUCAGGAUAUGAUGAAUUAUACAUGAGGAUCACCCAUGUAGAUCCUGAAUUAACAUCAGAAGGGAACAUUU [JL-ex5-4.46 Brourd mod] (Eterna round: R97, puzzle: Exclusion 5)”, for which the “apparent KD of MS2 coat protein” value runs as follows: (input ligand: FMN 200 uM) 0.023 µM; (input ligand: none) 0.0164 µM.
With “CUUUUGUGAGGAUAUUAGUAGUAAAAAAAUAAAAUUACUACUGAGAAGGCACAUGAGGAUCACCCAUGUUCUUC [salish99_ex4_r3_038] (puzzle: Exclusion 4)”, under setting [1], the “apparent KD of MS2 coat protein” value amounted to 0.0175 µM.
The same measure, in the same setting: the value for “UGAACCCAUGUUAGGAUAUCAGGCCGAGGAAGUUCUGAGAAGGGACAUGAGGAUCACCCAUGUAUAAAAGAAAC [Veontiinge] (puzzle: Brourd's mod of Exclusion 4)” was 0.0636 µM.
Regarding “UUUAAUUUUUUUUUUUUACAAGCUUUUUGCUCGUCUUAUACAUGAGGAUCACCCAUGUGGGUAGAAGGUAAAUUAUC [JMF 66] (puzzle: Sensor v3, turn-off variant 2)”, the “apparent KD of MS2 coat protein” value reads like this: under setting [3], 0.0243 µM; under setting [1], 0.0649 µM; under setting [4], 0.0224 µM.
“UAUUGCAAGCGAAGAUCCCACAUGAGGAUCACCCAUGUGCUCGUCUUAUAAGGUACUGUGACGAUAGUCACGGUACC [Mat - Sensor, turn-off var - Eli Mod - D76] (Eterna round: R97, puzzle: Sensor, turn-off variant 1)”: the “apparent KD of MS2 coat protein” value reads like this: (input ligand: FMN 200 uM) 0.034 µM; (input ligand: none) 0.0306 µM.
Consider “UUUAAUUUUUUUUUUUUACAAGCUUUUUGCUCGUCUUAUACAUGAGGAUCACCCAUGUGAAUGGGAAGUAAAUUAUC [JMF 51] (puzzle: Sensor v3, turn-off variant 2)”, for which the “apparent KD of MS2 coat protein” value was 0.103 µM under setting [3], 0.183 µM under setting [1] and 0.148 µM under setting [4].
The corresponding values for “CGAAGUAGAAACCGAUCCUACAUGAGGAUCACCCAUGUAGCAAGACGUGCACGCGAAGCUCGUCAGACUACCAGAAG [salish99_TOv1_r3_004] (puzzle: Sensor v3, turn-off variant 1)” are 0.343 µM, 0.352 µM and 0.332 µM.
Regarding “AGAUCACAUGAGGAUCACCCAUGUCAGGAUAUCUACAUUGAAGCUUCGGCUUCAAUGUAGAGAAGGGAUAAUUA [E1/4-B1] (Eterna round: R97, puzzle: Exclusion 1)”, the “apparent KD of MS2 coat protein” value by setting is: (input ligand: FMN 200 uM) 0.119 µM; (input ligand: none) 0.0622 µM.
As for “CUAGCUAUUGUAGGAUAUCGAUGUGUUUCACAUCGAGAAGGACAUGAGGAUCACCCAUGUGAAGGAUCGUGAGAUCCAAGCUAG [JL ENG1 3.77] (Eterna round: R96, puzzle: Exclusion NG 1)”, the “apparent KD of MS2 coat protein” value was 0.128 µM (input ligand: FMN 200 uM), 0.0251 µM under setting [2] and 0.0241 µM (input ligand: none).
Consider “GUAUAGCUAAAGGAUAUUCUCCGACGACGUGAAGAAGAAGGUUGGACAUGAGGAUCACCCAUGUGUACAGGAUA [Eternabot (L2) Solution 62] (Eterna round: R97, puzzle: Exclusion 6)”, for which the “apparent KD of MS2 coat protein” value runs as follows: (input ligand: FMN 200 uM) 0.0219 µM; (input ligand: none) 0.0218 µM.
Consider “GCUGAUGCAGGAUAUAUAUGAAGCGUUCGAAUAGAAUGCGAACAUGAGGAUCACCCAUGUAGAAGGGCAUUGGC [Omei Ex 2, 1A] (puzzle: Exclusion 2)”, for which the “apparent KD of MS2 coat protein” value under setting [1] stood at 0.0139 µM.
As for “AAAUUGUCAGGAUAUUGUUAGUUUAGUUGUUUGUAUUAGUUCGAGAAGGGACAUGAGGAUCACCCAUGUGAAAA [Ex4 #69] (Eterna round: R97, puzzle: Exclusion 4)”, the “apparent KD of MS2 coat protein” value by setting is: (input ligand: FMN 200 uM) 0.0383 µM; (input ligand: none) 0.0415 µM.
Consider “AGGGAACCCAAGGAUAUUGAGAGUUAAGCCACUUAAGAAGGUGGUACAUGAGGAUCACCCAUGUCCCUUGCAGA [Eternabot (L1) Solution 6] (Eterna round: R97, puzzle: Exclusion 6)”, for which the “apparent KD of MS2 coat protein” value runs as follows: (input ligand: FMN 200 uM) 0.0383 µM; (input ligand: none) 0.0416 µM.
For “AUAAUGUGAGGAUAUCAGUCGUACAGCCUCGGCUGUACGACUGAGAAGGCACAUGAGGAUCACCCAUGUGGUCA [E4/5-A2] (Eterna round: R97, puzzle: Exclusion 4)”, in that order: 0.156 µM and 0.59 µM.
The corresponding values for “UGGCUUAGAGGAUAUACAUUGAAUAAGAUUCAUGUAAAACUACAUGAGGAUCACCCAUGUAGAAGGCUAGGCCU [Mat - Exclusion 2 - JL Mod - D73] (Eterna round: R97, puzzle: Exclusion 2)” are 0.0327 µM and 0.0179 µM.
“GUUCGACAUGAGGAUCACCCAUGUGAGGAUAUACGAUUAGCUGCUAGGUAGUUAGUAUGUAGAAGGUGCGUGUU [EX1 #70] (Eterna round: R97, puzzle: Exclusion 1)”: the “apparent KD of MS2 coat protein” value was 0.0533 µM (input ligand: FMN 200 uM) and 0.0542 µM (input ligand: none).
Consider “UUGUACCGGUGAGGAUAUUUUUAAUAGAGCUUUAUGAUAUACAUGAGGAUCACCCAUGUUACUUUAAAGAAGGCAUCGGAUUAU [JL JR Sub091 mod 3] (Eterna round: R96, puzzle: Exclusion NG 2)”, for which the “apparent KD of MS2 coat protein” value turned out to be 0.0149 µM (input ligand: FMN 200 uM), 0.012 µM under setting [2] and 0.0206 µM (input ligand: none).
Take “UUUUUGUUUUUGUUUUUUGACAUGAGGAUCACCCAUGUCACGAGCAGAUCUUCAUGCAAGCUUUUUGCUCGUCUUAU [Sensor v3 - Turn-off variant 1 - 39] (puzzle: Sensor v3, turn-off variant 1)”: the “apparent KD of MS2 coat protein” value came out at 0.0628 µM under setting [3], 0.0469 µM under setting [1] and 0.0833 µM under setting [4].
On to “AGCUGUGGCCGAGGAUAUGACAUGAGGAUCACCCAUGUACACGAUUAGGCCUGGUAACAGGCUCAUCAGAAGGCGGUCUCAGCA [Eli eng2 - 017] (Eterna round: R96, puzzle: Exclusion NG 2)”, for which the “apparent KD of MS2 coat protein” value turned out to be 0.00977 µM (input ligand: FMN 200 uM), 0.0104 µM under setting [2] and 0.013 µM (input ligand: none).
For the sequence “CAGUCAGCGCAGGAUAUCUGCUCGGUGACAGACGGAGAAGGGUGCACAUGAGGAUCACCCAUGUGAAUCUCUAA [Eternabot (Original) Solution 3] (Eterna round: R97, puzzle: Exclusion 6)”, the “apparent KD of MS2 coat protein” value is, setting by setting: (input ligand: FMN 200 uM) 0.0214 µM; (input ligand: none) 0.0285 µM.
As for “ACGUGACAUGAGGAUCACCCAUGUGAGGAUAUCUGGAUAAUUUUUAUUUUAGAUAUCCAGAGAAGGCACAUGUU [Ex1-3: 1Z] (puzzle: Exclusion 1)”, the “apparent KD of MS2 coat protein” value under setting [1] came to 0.188 µM.
In the case of “AAAUUGUGAGGAUAUUCGAUGAACUCGGAGACGAGUUUAUCGGAGAAGGCACAUGAGGAUCACCCAUGUUCCUU [Mat - Exclusion 4 - JL Mod - D23] (Eterna round: R97, puzzle: Exclusion 4)”, the “apparent KD of MS2 coat protein” value (input ligand: FMN 200 uM) was found to be 0.102 µM and the “apparent KD of MS2 coat protein” value (input ligand: none) worked out at 0.0185 µM.
Turning to “GGUACUCAAAGAGUACCAAUACGAACAUGAGGAUCACCCAUGUAGGAUAUGCUACUCAAAGAGUAGCAGAAGGACGUGUACCCU [Far Half Aptamer v2] (Eterna round: R96, puzzle: Exclusion NG 3)”, the “apparent KD of MS2 coat protein” value turned out to be 0.0599 µM (input ligand: FMN 200 uM), 0.0219 µM under setting [2] and 0.0248 µM (input ligand: none).
Regarding “AGUCGAAAGACCCACAUGGACAUGAGGAUCACCCAUGUGCAAGCCUUUUGCUCGUCAGCUAGGUCAAAAGACCUAGC [JL Omei mod 1] (Eterna round: R97, puzzle: Sensor, turn-off variant 1)”, the “apparent KD of MS2 coat protein” value by setting is: (input ligand: FMN 200 uM) 0.655 µM; (input ligand: none) 0.813 µM.
Turning to “AGGUGACAUGAGGAUCACCCAUGUGAGGAUAUCUGGAUACUCUUUAUUUUAGAUAUCCAGAGAAGGCACACCCU [Ex1-3: 8Z] (puzzle: Exclusion 1)”, the “apparent KD of MS2 coat protein” value under setting [1] is 0.235 µM.
As for “AUAAAGCAAGCAUGAUCCCACAUGAGGAUCACCCAUGUGUUCGUCUUAUAGGCUGCUGAGGCUUUUGCCUCGGUGGC [LRO Sensor-off var1-06 loose mod of D91 from Mat747] (Eterna round: R97, puzzle: Sensor, turn-off variant 1)”, the “apparent KD of MS2 coat protein” value (input ligand: FMN 200 uM) is 0.069 µM and the “apparent KD of MS2 coat protein” value (input ligand: none) was found to be 0.0679 µM.
For “GCGCGAAGGUAGGAUAUCGAGGGAUCUUCCCGCCGAGAAGGACCCACAUGAGGAUCACCCAUGUGGUGAUCCUG [eternacac ex6r4 sub9] (Eterna round: R97, puzzle: Exclusion 6)”, in that order: 0.0271 µM and 0.0494 µM.
